Key:
Experiment in all cases: ITC
[1] = biological target: human NaV1.5 CTD (1773-1940) R1913H (human) (UniProt Q14524)
[2] = biological target: human NaV1.2 C-terminal domain (CTD), amino acids 1777-1937, wild type (human) (UniProt Q99250)
[3] = biological target: human NaV1.5 C-terminal domain (CTD), amino acids 1773-1940, wild type (human) (UniProt Q14524)
[4] = biological target: human NaV1.2 CTD (1777-1937) R1918H (human) (UniProt Q99250)
[5] = biological target: human NaV1.5 CTD (1773-1940) Q1909R (human) (UniProt Q14524)
[6] = biological target: human NaV1.6 C-terminal domain (CTD), amino acids 1769-1926, wild type (human) (UniProt Q9UQD0)
[7] = biological target: human NaV1.5 CTD (1773-1940) L1917K (human) (UniProt Q14524)
[8] = biological target: human NaV1.2 CTD (1777-1937) H1853R (human) (UniProt Q99250)
[9] = biological target: human NaV1.5 CTD (1773-1940) Y1795H (human) (UniProt Q14524)
[10] = biological target: human NaV1.5 CTD (1773-1940) Y1795C (human) (UniProt Q14524)
[11] = biological target: human NaV1.5 CTD (1773-1940) D1790G (human) (UniProt Q14524)

calmodulin (CaM) (from UniProt P0DP23 1-149) (natural protein)
stoichiometry N [1]: 0.73
dH [2]: -4.54 kcal/mol
stoichiometry N [2]: 1.02
dH [3]: -10.5 kcal/mol
dH [4]: -7.5 kcal/mol
dH [5]: -14.9 kcal/mol
dH [6]: -17.5 kcal/mol
dH [7]: -9.8 kcal/mol
stoichiometry N [7]: 0.98
dH [8]: -8.3 kcal/mol
dH [9]: -10.2 kcal/mol
stoichiometry N [9]: 0.76
dH [10]: -7.43 kcal/mol
stoichiometry N [10]: 0.92
dH [11]: -10.5 kcal/mol
stoichiometry N [11]: 0.25
